# Source: publication PMC13470446, “Microtubule-dependent regulation of chromatin dynamics by the Smc5/6 complex” (iScience, 2026)
# B1: Smc5-2KE hinge domain (residues 215–885, K624E K631E) (domain or fragment, S. cerevisiae, UniProt Q08204 215-885, looked up)
# chain: LRELQGNEQSLQKDLDFKKAKIVHLRQESDKLRKSVESLRDFQNKKGEIELHSQLLPYVKVKDHKEKLNIYKEEYERAKANLRAILKDKKPFANTKKTLENQVEELTEKCSLKTDEFLKAKEKINEIFEKLNTIRDEVIKKKNQNEYYRGRTKKLQATIISTKEDFLRSQEILAQTHLPEKSVFEDIDIKRKEIINKEGEIRDLISEIDAKANAINHEMRSIQRQAESKTKSLTTTDKIGILNQDQDLKEVRDAVLMVREHPEMKDKILEPPIMTVSAINAQFAAYLAQCVDYNTSKALTVVDSDSYKLFANPILDKFKVNLRELSSADTTPPVPAETVRDLGFEGYLSDFITGDKRVMKMLCQTSKIHTIPVSRRELTPAQIKKLITPRPNGKILFKRIIHGNRLVDIEQSAYGSEQVFPTDVSIKQTNFYQGSIMSNEQKIRIENEIINLKNEYNDRKSTLDALSNQKSGYRHELSELASKNDDINREAHQLNEIRKKYTMRKSTIETLREKLDQLKREARKDVSQKIKDIDDQIQQLLLKQRHLLSKMASSMKSLKNCQKELISTQILQFEAQNMDVSMNDVIGFFNEREADLKSQYEDKKKFVKEMRDTPEFQSWMREIRSYDQDTKEKLNKVAEKYEEEGNFNLSFVQDVLDKLESEIAMVNHDES
# notes: Smc5, S. cerevisiae, hinge domain construct, residues 215-885, with K624E and K631E; source: purified
# Biological target: microtubule polymers (Polymerised alpha/beta-tubulin heterodimers (one repeat given). Source is not printed (assay 'as previously described' in a cited paper); commercial mammalian brain tubulin is assumed, porcine taken a)
# Sequence (chain, as listed by the source, chain 1 of 2): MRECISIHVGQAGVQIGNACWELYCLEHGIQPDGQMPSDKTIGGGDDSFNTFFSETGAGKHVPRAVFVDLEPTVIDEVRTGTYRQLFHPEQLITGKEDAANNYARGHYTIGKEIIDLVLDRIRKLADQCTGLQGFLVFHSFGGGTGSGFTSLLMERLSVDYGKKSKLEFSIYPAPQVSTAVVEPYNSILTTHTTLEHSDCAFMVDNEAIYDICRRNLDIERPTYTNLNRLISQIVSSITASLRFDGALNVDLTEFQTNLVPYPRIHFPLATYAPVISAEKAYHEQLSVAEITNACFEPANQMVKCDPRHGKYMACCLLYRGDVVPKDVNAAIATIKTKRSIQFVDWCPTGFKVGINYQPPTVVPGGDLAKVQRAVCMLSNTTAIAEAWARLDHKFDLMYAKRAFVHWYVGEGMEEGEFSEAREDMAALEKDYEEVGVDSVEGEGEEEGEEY
# Sequence (chain, as listed by the source, chain 2 of 2): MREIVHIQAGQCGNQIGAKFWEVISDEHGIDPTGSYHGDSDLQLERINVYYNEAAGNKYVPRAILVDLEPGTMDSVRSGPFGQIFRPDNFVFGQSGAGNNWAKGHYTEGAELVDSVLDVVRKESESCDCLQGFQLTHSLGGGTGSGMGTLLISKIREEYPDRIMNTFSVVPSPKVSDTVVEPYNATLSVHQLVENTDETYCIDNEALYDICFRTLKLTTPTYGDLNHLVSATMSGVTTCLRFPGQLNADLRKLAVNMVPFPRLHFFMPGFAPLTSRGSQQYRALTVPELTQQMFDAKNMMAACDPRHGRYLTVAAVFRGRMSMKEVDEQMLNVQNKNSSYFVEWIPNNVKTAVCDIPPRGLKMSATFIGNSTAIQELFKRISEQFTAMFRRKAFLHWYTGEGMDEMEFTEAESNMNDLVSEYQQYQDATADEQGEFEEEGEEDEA
# Experiment: co-sedimentation; microtubule pelleting assay; fraction of microtubule-bound Smc5 plotted against microtubule concentration, Kd by curve fitting to a hyperbola; 3 independent experiments
# Conditions: both partners purified
binder,measurement,value
B1,fold reduction in binding affinity against wild-type Smc5,3 fold
